{
  "source": "patent US20090099029",
  "proteins": {"B1": {"name": "RET (protein)", "chain": "HCYHKFAHKPPISSAEMTFRRPAQAFPVSYSSSGARRPSLDSMENQVSVDAFKILEDPKWEFPRKNLVLGKTLGEGEFGKVVKATAFHLKGRAGYTTVAVKMLKENASPSELRDLLSEFNVLKQVNHPHVIKLYGACSQDGPLLLIVEYAKYGSLRGFLRESRKVGPGYLGSGGSRNSSSLDHPDERALTMGDLISFAWQISQGMQYLAEMKLVHRDLAARNILVAEGRKMKISDFGLSRDVYEEDSYVKRSQGRIPVKWMAIESLFDHIYTTQSDVWSFGVLLWEIVTLGGNPYPGIPPERLFNLLKTGHRMERPDNCSEEMYRLMLQCWKQEPDKRPVFADISKDLEKMMVKRRDYLDLAASTPSDSLIYDDGLSEEETPLVDCNNAPLPRALPSTWIENKLYGMSDPNWPGESPVPLTRADGTNTGFPRYPNDSVYANWMLSPSAAKLMDTFDS"}, "B2": {"name": "PDGFRA, T674I (protein)", "chain": "KQKPRYEIRWRVIESISPDGHEYIYVDPMQLPYDSRWEFPRDGLVLGRVLGSGAFGKVVEGTAYGLSRSQPVMKVAVKMLKPTARSSEKQALMSELKIMTHLGPHLNIVNLLGACTKSGPIYIIIEYCFYGDLVNYLHKNRDSFLSHHPEKPKKELDIFGLNPADESTRSYVILSFENNGDYMDMKQADTTQYVPMLERKEVSKYSDIQRSLYDRPASYKKKSMLDSEVKNLLSDDNSEGLTLLDLLSFTYQVARGMEFLASKNCVHRDLAARNVLLAQGKIVKICDFGLARDIMHDSNYVSKGSTFLPVKWMAPESIFDNLYTTLSDVWSYGILLWEIFSLGGTPYPGMMVDSTFYNKIKSGYRMAKPDHATSEVYEIMVKCWNSEPEKRPSFYHLSEIVENLLPGQYKKSYEKIHLDFLKSDHPAVARMRVDSDNAYIGVTYKNEEDKLKDWEGGLDEQRLSADSGYIIPLPDIDPVPEEEDLGKRNRHSSQTSEESAIETGSSSSTFIKREDETIEDIDMMDDIGIDSSDLVEDSFL"}, "B3": {"name": "PDGFRB (protein)", "chain": "MLWQKKPRYEIRWKVIESVSSDGHEYIYVDPMQLPYDSTWELPRDQLVLGRTLGSGAFGQVVEATAHGLSHSQATMKVAVKMLKSTARSSEKQALMSELKIMSHLGPHLNVVNLLGACTKGGPIYIITEYCRYGDLVDYLHRNKHTFLQHHSDKRRPPSAELYSNALPVGLPLPSHVSLTGESDGGYMDMSKDESVDYVPMLDMKGDVKYADIESSNYMAPYDNYVPSAPERTCRATLINESPVLSYMDLVGFSYQVANGMEFLASKNCVHRDLAARNVLICEGKLVKICDFGLARDIMRDSNYISKGSTFLPLKWMAPESIFNSLYTTLSDVWSFGILLWEIFTLGGTPYPELPMNEQFYNAIKRGYRMAQPAHASDEIYEIMQKCWEEKFEIRPPFSQLVLLLERLLGEGYKKKYQQVDEEFLRSDHPAILRSQARLPGFHGLRSPLDTSSVLYTAVQPNEGDNDYIIPLPDPKPEVADEGPLEGSPSLASSTLNEVNTSSTISCDSPLEPQDEPEPEPQLELQVEPEPELEQLPDSGCPAPRAEAEDSFL"}, "B4": {"name": "CSF1R (protein)", "chain": "YKYKQKPKYQVRWKIIESYEGNSYTFIDPTQLPYNEKWEFPRNNLQFGKTLGAGAFGKVVEATAFGLGKEDAVLKVAVKMLKSTAHADEKEALMSELKIMSHLGQHENIVNLLGACTHGGPVLVITEYCCYGDLLNFLRRKAEAMLGPSLSPGQDPEGGVDYKNIHLEKKYVRRDSGFSSQGVDTYVEMRPVSTSSNDSFSEQDLDKEDGRPLELRDLLHFSSQVAQGMAFLASKNCIHRDVAARNVLLTNGHVAKIGDFGLARDIMNDSNYIVKGNARLPVKWMAPESIFDCVYTVQSDVWSYGILLWEIFSLGLNPYPGILVNSKFYKLVKDGYQMAQPAFAPKNIYSIMQACWALEPTHRPTFQQICSFLQEQAQEDRRERDYTNLPSSSRSGGSGSSSSELEEESSSEHLTCCEQGDIAQPLLQPNNYQFC"}},
  "data": [
    {"molecular_target": "T1, Bovine, dephosphorylated, Myelin Basic Protein (MBP), P02687", "T1 chain": "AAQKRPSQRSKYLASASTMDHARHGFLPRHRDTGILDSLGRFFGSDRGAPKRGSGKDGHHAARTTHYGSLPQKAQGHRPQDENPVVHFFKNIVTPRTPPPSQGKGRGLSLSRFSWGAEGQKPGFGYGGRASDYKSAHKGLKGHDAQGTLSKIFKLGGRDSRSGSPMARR", "values": [
      {"protein": "B1", "MBP Kinase Activity": "Strong"},
      {"protein": "B2", "MBP Kinase Activity": "Negative"},
      {"protein": "B3", "MBP Kinase Activity": "Strong"},
      {"protein": "B4", "MBP Kinase Activity": "Strong"}
    ]}
  ]
}
